Molecular target: Phaeodactylum tricornutum diaminopimelate decarboxylase (PtLYSA), amino acids 39-476 (Phaeodactylum tricornutum)
Experiment: SEC

stoichiometry N: 2
Substance: Phaeodactylum tricornutum diaminopimelate decarboxylase (PtLYSA), amino acids 39-476 (enzyme)

From article doi:10.1101/2020.10.01.322594
